Laboratory results reported in PMC3923644.
Read-outs that look alike come from different tables or passages of the source.

B1: nCaRE-B SIRT1-B (dsDNA)
DNA 1: TTTTTGAGACGGAGTTTCGCTCTTG
DNA 2: CAAGAGCGAAACTCCGTCTCAAAAA
B2: nCaRE-B SIRT1-B (biotinylated) (dsDNA)
DNA 1: TTTTTGAGACGGAGTTTCGCTCTTG
DNA 2: CAAGAGCGAAACTCCGTCTCAAAAA
B3: nCaRE-B SIRT1-B mutated (biotinylated) (dsDNA)
DNA 1: TTTTTGCTAAGGAGCGTCGCTCTTG
DNA 2: CAAGAGCGACGCTCCTTAGCAAAAA
B4: nCaRE-B SIRT1-A (dsDNA)
DNA 1: TTTTTGAGACAGAGTTTCACTCTTG
DNA 2: CAAGAGTGAAACTCTGTCTCAAAAA

Key:
APE1 NΔ33 [1] = target: T1, APE1 NΔ33 (Homo sapiens, UniProt P27695 34-318, del1-33); assay: EMSA
APE1 NΔ33 [2] = target: T1, APE1 NΔ33; assay: SPR
APE1 WT [3] = target: T2, APE1 WT (Homo sapiens, UniProt P27695 1-318); assay: SPR
APE1 WT [4] = target: T2, APE1 WT; assay: SPR; remark: listed apart in the source
APE1 WT [5] = target: T2, APE1 WT; assay: EMSA

T2 sequence (P27695 whole entry): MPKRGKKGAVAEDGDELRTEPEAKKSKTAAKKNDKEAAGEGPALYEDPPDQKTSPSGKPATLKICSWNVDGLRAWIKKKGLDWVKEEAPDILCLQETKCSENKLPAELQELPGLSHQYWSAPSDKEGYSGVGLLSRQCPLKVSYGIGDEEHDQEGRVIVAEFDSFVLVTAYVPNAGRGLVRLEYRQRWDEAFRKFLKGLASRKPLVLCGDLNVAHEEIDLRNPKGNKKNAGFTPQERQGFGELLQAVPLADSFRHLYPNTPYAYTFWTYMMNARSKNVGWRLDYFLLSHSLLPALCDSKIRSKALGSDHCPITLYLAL
T1 sequence (P27695 34-318, stated change not applied): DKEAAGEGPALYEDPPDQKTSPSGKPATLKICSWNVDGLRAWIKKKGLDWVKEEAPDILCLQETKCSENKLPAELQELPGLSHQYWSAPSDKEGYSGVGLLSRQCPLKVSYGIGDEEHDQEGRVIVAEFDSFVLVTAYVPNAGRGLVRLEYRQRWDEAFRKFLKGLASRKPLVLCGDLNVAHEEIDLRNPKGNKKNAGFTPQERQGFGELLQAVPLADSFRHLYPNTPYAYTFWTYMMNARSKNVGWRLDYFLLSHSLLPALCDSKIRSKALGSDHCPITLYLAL

Binder	binding result (APE1 NΔ33 [1])	binding result (APE1 NΔ33 [2])	Kd (APE1 WT [3])	also measured
B1	no binding	–	–	–
B2	–	no binding	3.9 ± 0.08 µM	–
B3	–	–	–	Kd (APE1 WT [4]): 119 ± 8 µM
TTTTTTTTTTTTTTTTTTTTTTTT (ssDNA) [poly(dT) 24-mer]	–	no binding	308 ± 3 µM	–
B4	no binding	–	–	binding result (APE1 WT [5]): binds
